Where a SMILES comes first, the peptide text is derived from it. Bridges are numbered along the chain shown (N, C = ends). [ ]: non-standard residue; d: D form. R8 = C=CCCCCCC[C@@](C)(N)C(=O)O; R5 = C=CCCC[C@@](C)(N)C(=O)O; S5 = C=CCCC[C@](C)(N)C(=O)O
Tests used:
[1] = Circular dichroism spectroscopy, α-helical content; type: physicochemical; conditions: CD, 10 mM phosphate buffer pH 7.5, 50 μM peptide, 25°C, calculated from ellipticity at 222 nm; average of three measurements
Description: The α-helical stabilization appeared to be higher for the i, i + 7 staples overall.
The circular dichroism spectra were acquired on a Chirascan spectropolarimeter. The samples were prepared in 10 mM phosphate buffer, pH 7.5, at a peptide concentration of 50 μM. Data were recorded at 25°C by step scan from 180 nm to 260 nm in a 0.5-mm-pathlength quartz cell using 0.2-nm-wavelength increments, a 1-nm bandwidth, and a response time of 1 s. Each spectrum was an average of three measurements and was subtracted from the buffer baseline. The data were converted to per residue molar ellipticity units (θ; in degrees · square centimeters · decimoles^−1 · number of residues^−1) and smoothed using Igor Pro software. Percent helicity was calculated as follows: (100 × CD222)/(C × N × {40,000 × [1 − (2.5/N)]}), where CD222 is the molar ellipticity (θ) at 222 nm (in millidegrees), N is the number of amino acids in the peptide, and C is the peptide molar concentration (in moles per liter).

rHRSV-mCherry = conditions: read-out: EC50 (half-maximal response inhibitory concentration), inhibition of RSV infection; HEp-2 cells, MOI 0.2, peptides added after 2 h infection, mCherry fluorescence at 48 h postinfection; duplicates
circular dichroism = conditions: 10 mM phosphate; pH 7.5; 25 °C; 50 uM

SMILES	% helicity [1]	EC50 (rHRSV-mCherry)	helicity (circular dichroism)
CC[C@H](C)[C@H](NC(=O)[C@]1(C)CCCC=CCCCCCC[C@@](C)(NC(=O)[C@H](CC(N)=O)NC(=O)[C@H](CC(N)=O)NC(=O)[C@H](C)NC(=O)[C@]2(C)CCCC=CCCC[C@](C)(NC(=O)[C@H](CCC(=O)O)NC(C)=O)C(=O)N[C@@H](Cc3c[nH]cn3)C(=O)NCC(=O)N[C@@H](CCC(=O)O)C(=O)N2)C(=O)N[C@@H](C)C(=O)N[C@@H]([C@@H](C)O)C(=O)N[C@@H](CCCCN)C(=O)N[C@@H](Cc2ccccc2)C(=O)N[C@@H](CC(C)C)C(=O)N[C@@H](CCC(=O)O)C(=O)N1)C(=O)N[C@@H](CCCCN)C(=O)NCC(=O)N[C@@H](CCCCN)C(=O)N[C@@H](Cc1ccccc1)C(=O)N[C@@H](C)C(=O)N[C@@H](CO)C(N)=O [4c3b] (Ac-E[S5]HGE[S5]ANN[R8]ATKFLE[S5]IKGKFAS-NH2; staple 2-6, 10-17)	34.2%	39.9 ± 4.5 µM	
CC[C@H](C)[C@@H]1NC(=O)[C@](C)(NC(=O)[C@H](CCC(=O)O)NC(=O)[C@H](CC(C)C)NC(=O)[C@H](Cc2ccccc2)NC(=O)[C@H](CCCCN)NC(=O)[C@@H](NC(=O)[C@H](C)NC(=O)[C@H](CCCCN)NC(=O)[C@H](CC(N)=O)NC(=O)[C@H](CC(N)=O)NC(=O)[C@H](C)NC(=O)[C@H](CC(=O)O)NC(=O)[C@H](CCC(=O)O)NC(C)=O)[C@@H](C)O)CCCC=CCCC[C@@](C)(C(=O)N[C@@H](CCCCN)C(=O)N[C@@H](Cc2ccccc2)C(=O)N[C@@H](C)C(=O)N[C@@H](CO)C(N)=O)NC(=O)[C@H](CCCCN)NC1=O (Ac-EDANNKATKFLE[R5]IK[S5]KFAS-NH2; staple 13-16)			30.7%
CC[C@H](C)[C@H](NC(=O)[C@H](CO)NC(=O)[C@]1(C)CCCC=CCCC[C@](C)(NC(=O)[C@H](C)NC(=O)[C@H](CCCCN)NC(=O)[C@H](CC(N)=O)NC(=O)[C@H](CC(N)=O)NC(=O)[C@H](C)NC(=O)[C@H](CC(=O)O)NC(=O)[C@H](CCC(=O)O)NC(C)=O)C(=O)N[C@@H](CCCCN)C(=O)N[C@@H](Cc2ccccc2)C(=O)N[C@@H](CC(C)C)C(=O)N1)C(=O)N[C@@H](CCCCN)C(=O)NCC(=O)N[C@@H](CCCCN)C(=O)N[C@@H](Cc1ccccc1)C(=O)N[C@@H](C)C(=O)N[C@@H](CO)C(N)=O (Ac-EDANNKA[S5]KFL[S5]SIKGKFAS-NH2; staple 8-12)			31%
CC[C@H](C)[C@H](NC(=O)[C@]1(C)CCCC=CCCCCCC[C@@](C)(NC(=O)[C@H](CC(N)=O)NC(=O)[C@H](CC(N)=O)NC(=O)[C@H](C)NC(=O)[C@H](CC(=O)O)NC(=O)[C@H](CCC(=O)O)NC(=O)CNC(=O)[C@H](Cc2c[nH]cn2)NC(=O)[C@H](Cc2ccccc2)NC(=O)[C@H](CCC(=O)O)NC(C)=O)C(=O)N[C@@H](C)C(=O)N[C@@H]([C@@H](C)O)C(=O)N[C@@H](CCCCN)C(=O)N[C@@H](Cc2ccccc2)C(=O)N[C@@H](CC(C)C)C(=O)N[C@@H](CCC(=O)O)C(=O)N1)C(=O)N[C@@H](CCCCN)C(=O)N[C@]1(C)CCCC=CCCC[C@@](C)(C(=O)N[C@@H](CO)C(N)=O)NC(=O)[C@H](Cc2ccccc2)NC(=O)[C@H](CCCCN)NC1=O [3b1f] (Ac-EFHGEDANN[R8]ATKFLE[S5]IK[R5]KF[S5]S-NH2; staple 10-17, 20-23)	46.6%	> 100 µM	
CC[C@H](C)[C@H](NC(=O)[C@]1(C)CCCC=CCCCCCC[C@@](C)(NC(=O)[C@H](CC(N)=O)NC(=O)[C@H](CC(N)=O)NC(=O)[C@H](C)NC(=O)[C@H](CC(=O)O)NC(=O)[C@H](CCC(=O)O)NC(C)=O)C(=O)N[C@@H](C)C(=O)N[C@@H]([C@@H](C)O)C(=O)N[C@@H](CCCCN)C(=O)N[C@@H](Cc2ccccc2)C(=O)N[C@@H](CC(C)C)C(=O)N[C@@H](CCC(=O)O)C(=O)N1)C(=O)N[C@@H](CCCCN)C(=O)NCC(=O)N[C@@H](CCCCN)C(=O)N[C@@H](Cc1ccccc1)C(=O)N[C@@H](C)C(=O)N[C@@H](CO)C(N)=O (Ac-EDANN[R8]ATKFLE[S5]IKGKFAS-NH2; staple 6-13)			36.5%
CC[C@H](C)[C@H](NC(=O)[C@H](CO)NC(=O)[C@]1(C)CCCC=CCCC[C@@](C)(NC(=O)[C@@H](NC(=O)[C@H](C)NC(=O)[C@H](CCCCN)NC(=O)[C@H](CC(N)=O)NC(=O)[C@H](CC(N)=O)NC(=O)[C@H](C)NC(=O)[C@H](CC(=O)O)NC(=O)[C@H](CCC(=O)O)NC(C)=O)[C@@H](C)O)C(=O)N[C@@H](Cc2ccccc2)C(=O)N[C@@H](CC(C)C)C(=O)N1)C(=O)N[C@@H](CCCCN)C(=O)NCC(=O)N[C@@H](CCCCN)C(=O)N[C@@H](Cc1ccccc1)C(=O)N[C@@H](C)C(=O)N[C@@H](CO)C(N)=O (Ac-EDANNKAT[R5]FL[S5]SIKGKFAS-NH2; staple 9-12)			58.9%
CC[C@H](C)[C@H](NC(=O)[C@H](CO)NC(=O)[C@H](CCC(=O)O)NC(=O)[C@H](CC(C)C)NC(=O)[C@H](Cc1ccccc1)NC(=O)[C@H](CCCCN)NC(=O)[C@@H](NC(=O)[C@H](C)NC(=O)[C@H](CCCCN)NC(=O)[C@H](CC(N)=O)NC(=O)[C@H](CC(N)=O)NC(=O)[C@H](C)NC(=O)[C@H](CC(=O)O)NC(=O)[C@H](CCC(=O)O)NC(C)=O)[C@@H](C)O)C(=O)N[C@@H](CCCCN)C(=O)N[C@@]1(C)CCCC=CCCC[C@@](C)(C(N)=O)NC(=O)[C@H](C)NC(=O)[C@H](Cc2ccccc2)NC(=O)[C@H](CCCCN)NC1=O (Ac-EDANNKATKFLESIK[S5]KFA[S5]-NH2; staple 16-20)			24.1%
CC[C@H](C)[C@H](NC(=O)[C@H](CO)NC(=O)[C@]1(C)CCCC=CCCCCCC[C@@](C)(NC(=O)[C@H](CC(N)=O)NC(=O)[C@H](C)NC(=O)[C@H](CC(=O)O)NC(=O)[C@H](CCC(=O)O)NC(C)=O)C(=O)N[C@@H](CCCCN)C(=O)N[C@@H](C)C(=O)N[C@@H]([C@@H](C)O)C(=O)N[C@@H](CCCCN)C(=O)N[C@@H](Cc2ccccc2)C(=O)N[C@@H](CC(C)C)C(=O)N1)C(=O)N[C@@H](CCCCN)C(=O)NCC(=O)N[C@@H](CCCCN)C(=O)N[C@@H](Cc1ccccc1)C(=O)N[C@@H](C)C(=O)N[C@@H](CO)C(N)=O (Ac-EDAN[R8]KATKFL[S5]SIKGKFAS-NH2; staple 5-12)			64.6%
CC[C@H](C)[C@@H]1NC(=O)[C@](C)(NC(=O)[C@H](CCC(=O)O)NC(=O)[C@H](CC(C)C)NC(=O)[C@H](Cc2ccccc2)NC(=O)[C@H](CCCCN)NC(=O)[C@@H](NC(=O)[C@H](C)NC(=O)[C@H](CCCCN)NC(=O)[C@H](CC(N)=O)NC(=O)[C@H](CC(N)=O)NC(=O)[C@H](C)NC(=O)[C@H](CC(=O)O)NC(=O)[C@H](CCC(=O)O)NC(C)=O)[C@@H](C)O)CCCCCCC=CCCC[C@@](C)(C(N)=O)NC(=O)[C@H](C)NC(=O)[C@H](Cc2ccccc2)NC(=O)[C@H](CCCCN)NC(=O)CNC(=O)[C@H](CCCCN)NC1=O [3e] (Ac-EDANNKATKFLE[R8]IKGKFA[S5]-NH2; staple 13-20)	19.9%		19.9%
CC[C@H](C)[C@H](NC(=O)[C@]1(C)CCCC=CCCC[C@](C)(NC(=O)[C@@H](NC(=O)[C@H](C)NC(=O)[C@H](CCCCN)NC(=O)[C@H](CC(N)=O)NC(=O)[C@H](CC(N)=O)NC(=O)[C@H](C)NC(=O)[C@H](CC(=O)O)NC(=O)[C@H](CCC(=O)O)NC(C)=O)[C@@H](C)O)C(=O)N[C@@H](Cc2ccccc2)C(=O)N[C@@H](CC(C)C)C(=O)N[C@@H](CCC(=O)O)C(=O)N1)C(=O)N[C@@H](CCCCN)C(=O)NCC(=O)N[C@@H](CCCCN)C(=O)N[C@@H](Cc1ccccc1)C(=O)N[C@@H](C)C(=O)N[C@@H](CO)C(N)=O [2c] (Ac-EDANNKAT[S5]FLE[S5]IKGKFAS-NH2; staple 9-13)	16.8%		16.8%
CC[C@H](C)[C@@H]1NC(=O)[C@H](CO)NC(=O)[C@H](CCC(=O)O)NC(=O)[C@H](CC(C)C)NC(=O)[C@H](Cc2ccccc2)NC(=O)[C@](C)(NC(=O)[C@@H](NC(=O)[C@H](C)NC(=O)[C@H](CCCCN)NC(=O)[C@H](CC(N)=O)NC(=O)[C@H](CC(N)=O)NC(=O)[C@H](C)NC(=O)[C@H](CC(=O)O)NC(=O)[C@H](CCC(=O)O)NC(C)=O)[C@@H](C)O)CCCCCCC=CCCC[C@@](C)(C(=O)N[C@@H](CCCCN)C(=O)N[C@@H](Cc2ccccc2)C(=O)N[C@@H](C)C(=O)N[C@@H](CO)C(N)=O)NC(=O)[C@H](CCCCN)NC1=O (Ac-EDANNKAT[R8]FLESIK[S5]KFAS-NH2; staple 9-16)			96%
CC[C@H](C)[C@@H]1NC(=O)[C@@](C)(NC(=O)[C@H](CCC(=O)O)NC(=O)[C@H](CC(C)C)NC(=O)[C@H](Cc2ccccc2)NC(=O)[C@H](CCCCN)NC(=O)[C@@H](NC(=O)[C@H](C)NC(=O)[C@H](CCCCN)NC(=O)[C@H](CC(N)=O)NC(=O)[C@H](CC(N)=O)NC(=O)[C@H](C)NC(=O)[C@H](CC(=O)O)NC(=O)[C@H](CCC(=O)O)NC(C)=O)[C@@H](C)O)CCCC=CCCC[C@@](C)(C(=O)N[C@@H](Cc2ccccc2)C(=O)N[C@@H](C)C(=O)N[C@@H](CO)C(N)=O)NC(=O)CNC(=O)[C@H](CCCCN)NC1=O (Ac-EDANNKATKFLE[S5]IKG[S5]FAS-NH2; staple 13-17)			46.5%
CC[C@H](C)[C@H](NC(=O)[C@H](CO)NC(=O)[C@H](CCC(=O)O)NC(=O)[C@H](CC(C)C)NC(=O)[C@H](Cc1ccccc1)NC(=O)[C@]1(C)CCCC=CCCC[C@](C)(NC(=O)[C@H](CC(N)=O)NC(=O)[C@H](C)NC(=O)[C@H](CC(=O)O)NC(=O)[C@H](CCC(=O)O)NC(C)=O)C(=O)N[C@@H](CCCCN)C(=O)N[C@@H](C)C(=O)N[C@@H]([C@@H](C)O)C(=O)N1)C(=O)N[C@@H](CCCCN)C(=O)NCC(=O)N[C@@H](CCCCN)C(=O)N[C@@H](Cc1ccccc1)C(=O)N[C@@H](C)C(=O)N[C@@H](CO)C(N)=O [2a] (Ac-EDAN[S5]KAT[S5]FLESIKGKFAS-NH2; staple 5-9)	17.9%		17.9%

Reference: paper PMC7508628, “Targeting the Respiratory Syncytial Virus N^0-P Complex with Constrained α-Helical Peptides in Cells and Mice” (Antimicrobial Agents and Chemotherapy, 2020)
